Numbered stars: 1 amine (or outer) side, 2 acyl side, 3 side chain; on linkers, the order of the positions; unused ones are H or OH. Bridge positions count the residues as written; N and C are the ends. Side chains are listed from the residue outwards. Ends that are not written are not given here. * marks the point of attachment. C20 diacid = O=C(O)CCCCCCCCCCCCCCCCCCC(=O)*; γGlu = O=C(O)[C@H](CCC(=O)[*:2])N[*:1]; AEEA = NCCOCCOCC(=O)O
T1: human calcitonin receptor (human, UniProt P30988 25-474)
T1 sequence (looked up): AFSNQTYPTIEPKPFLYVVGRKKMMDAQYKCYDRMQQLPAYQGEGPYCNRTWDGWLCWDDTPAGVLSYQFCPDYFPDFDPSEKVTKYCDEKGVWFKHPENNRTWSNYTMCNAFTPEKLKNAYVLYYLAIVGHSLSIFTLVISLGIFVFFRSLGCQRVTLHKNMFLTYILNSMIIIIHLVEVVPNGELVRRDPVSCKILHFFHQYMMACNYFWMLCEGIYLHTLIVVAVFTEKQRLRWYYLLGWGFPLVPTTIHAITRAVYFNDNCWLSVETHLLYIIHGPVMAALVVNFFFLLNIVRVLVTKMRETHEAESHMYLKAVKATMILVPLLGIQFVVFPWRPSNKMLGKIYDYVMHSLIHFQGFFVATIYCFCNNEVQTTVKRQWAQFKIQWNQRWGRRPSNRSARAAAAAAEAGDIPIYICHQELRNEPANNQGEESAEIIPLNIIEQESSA

T2: human amylin receptor (amylin 3(a) receptor: human calcitonin receptor coexpressed with RAMP-3) (human, UniProt P30988 25-474; O60896 24-148)
T2 sequence (looked up) 1: T1 sequence (looked up)
T2 sequence (looked up) 2: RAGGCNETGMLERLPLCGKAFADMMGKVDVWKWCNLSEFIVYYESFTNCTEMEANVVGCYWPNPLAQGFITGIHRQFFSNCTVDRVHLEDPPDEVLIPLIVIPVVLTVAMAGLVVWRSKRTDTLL

B1: N^ε1-[2-[2-[2-[[2-[2-[2-[[(4S)-4-carboxy-4-(19-carboxynonadecanoylamino)butanoyl]amino]ethoxy]ethoxy]acetyl]amino]ethoxy]ethoxy]acetyl]-[Arg17,Pro21,Pro27,Pro31 … (peptide)
peptide: K([AEEA-AEEA-γGlu-C20 diacid])CNTATCATQRLANFLRHSSPNFGAIPSSTPVGSNTY-NH2
modifications: disulfide 2-7; N-terminus assumed
SMILES: CC[C@H](C)[C@H](NC(=O)[C@H](C)NC(=O)CNC(=O)[C@H](Cc1ccccc1)NC(=O)[C@H](CC(N)=O)NC(=O)[C@@H]1CCCN1C(=O)[C@H](CO)NC(=O)[C@H](CO)NC(=O)[C@H](Cc1c[nH]cn1)NC(=O)[C@H](CCCNC(=N)N)NC(=O)[C@H](CC(C)C)NC(=O)[C@H](Cc1ccccc1)NC(=O)[C@H](CC(N)=O)NC(=O)[C@H](C)NC(=O)[C@H](CC(C)C)NC(=O)[C@H](CCCNC(=N)N)NC(=O)[C@H](CCC(N)=O)NC(=O)[C@@H](NC(=O)[C@H](C)NC(=O)[C@@H]1CSSC[C@H](NC(=O)[C@@H](N)CCCCNC(=O)COCCOCCNC(=O)COCCOCCNC(=O)CC[C@H](NC(=O)CCCCCCCCCCCCCCCCCCC(=O)O)C(=O)O)C(=O)N[C@@H](CC(N)=O)C(=O)N[C@@H]([C@@H](C)O)C(=O)N[C@@H](C)C(=O)N[C@@H]([C@@H](C)O)C(=O)N1)[C@@H](C)O)C(=O)N1CCC[C@H]1C(=O)N[C@@H](CO)C(=O)N[C@@H](CO)C(=O)N[C@H](C(=O)N1CCC[C@H]1C(=O)N[C@H](C(=O)NCC(=O)N[C@@H](CO)C(=O)N[C@@H](CC(N)=O)C(=O)N[C@H](C(=O)N[C@@H](Cc1ccc(O)cc1)C(N)=O)[C@@H](C)O)C(C)C)[C@@H](C)O
notes: also called compound 96
B2: N^ε1-[2-[2-[2-[[2-[2-[2-[[(4S)-4-carboxy-4-(19-carboxynonadecanoylamino)butanoyl]amino]ethoxy]ethoxy]acetyl]amino]ethoxy]ethoxy]acetyl]-[Arg17,Pro21,Pro27,Pro34 … (peptide)
peptide: K([AEEA-AEEA-γGlu-C20 diacid])CNTATCATQRLANFLRHSSPNFGAIPSSTNVGPNTY-NH2
modifications: disulfide 2-7; N-terminus assumed
SMILES: CC[C@H](C)[C@H](NC(=O)[C@H](C)NC(=O)CNC(=O)[C@H](Cc1ccccc1)NC(=O)[C@H](CC(N)=O)NC(=O)[C@@H]1CCCN1C(=O)[C@H](CO)NC(=O)[C@H](CO)NC(=O)[C@H](Cc1c[nH]cn1)NC(=O)[C@H](CCCNC(=N)N)NC(=O)[C@H](CC(C)C)NC(=O)[C@H](Cc1ccccc1)NC(=O)[C@H](CC(N)=O)NC(=O)[C@H](C)NC(=O)[C@H](CC(C)C)NC(=O)[C@H](CCCNC(=N)N)NC(=O)[C@H](CCC(N)=O)NC(=O)[C@@H](NC(=O)[C@H](C)NC(=O)[C@@H]1CSSC[C@H](NC(=O)[C@@H](N)CCCCNC(=O)COCCOCCNC(=O)COCCOCCNC(=O)CC[C@H](NC(=O)CCCCCCCCCCCCCCCCCCC(=O)O)C(=O)O)C(=O)N[C@@H](CC(N)=O)C(=O)N[C@@H]([C@@H](C)O)C(=O)N[C@@H](C)C(=O)N[C@@H]([C@@H](C)O)C(=O)N1)[C@@H](C)O)C(=O)N1CCC[C@H]1C(=O)N[C@@H](CO)C(=O)N[C@@H](CO)C(=O)N[C@H](C(=O)N[C@@H](CC(N)=O)C(=O)N[C@H](C(=O)NCC(=O)N1CCC[C@H]1C(=O)N[C@@H](CC(N)=O)C(=O)N[C@H](C(=O)N[C@@H](Cc1ccc(O)cc1)C(N)=O)[C@@H](C)O)C(C)C)[C@@H](C)O
notes: also called compound 98
B3: N^ε1-[2-[2-[2-[[(4S)-4-carboxy-4-(19-carboxynonadecanoylamino)butanoyl]amino]ethoxy]ethoxy]acetyl]-[Arg14,Arg17,Pro21,Pro27]-h-amylin (peptide)
peptide: K([AEEA-γGlu-C20 diacid])CNTATCATQRLARFLRHSSPNFGAIPSSTNVGSNTY-NH2
modifications: disulfide 2-7; N-terminus assumed
SMILES: CC[C@H](C)[C@H](NC(=O)[C@H](C)NC(=O)CNC(=O)[C@H](Cc1ccccc1)NC(=O)[C@H](CC(N)=O)NC(=O)[C@@H]1CCCN1C(=O)[C@H](CO)NC(=O)[C@H](CO)NC(=O)[C@H](Cc1c[nH]cn1)NC(=O)[C@H](CCCNC(=N)N)NC(=O)[C@H](CC(C)C)NC(=O)[C@H](Cc1ccccc1)NC(=O)[C@H](CCCNC(=N)N)NC(=O)[C@H](C)NC(=O)[C@H](CC(C)C)NC(=O)[C@H](CCCNC(=N)N)NC(=O)[C@H](CCC(N)=O)NC(=O)[C@@H](NC(=O)[C@H](C)NC(=O)[C@@H]1CSSC[C@H](NC(=O)[C@@H](N)CCCCNC(=O)COCCOCCNC(=O)CC[C@H](NC(=O)CCCCCCCCCCCCCCCCCCC(=O)O)C(=O)O)C(=O)N[C@@H](CC(N)=O)C(=O)N[C@@H]([C@@H](C)O)C(=O)N[C@@H](C)C(=O)N[C@@H]([C@@H](C)O)C(=O)N1)[C@@H](C)O)C(=O)N1CCC[C@H]1C(=O)N[C@@H](CO)C(=O)N[C@@H](CO)C(=O)N[C@H](C(=O)N[C@@H](CC(N)=O)C(=O)N[C@H](C(=O)NCC(=O)N[C@@H](CO)C(=O)N[C@@H](CC(N)=O)C(=O)N[C@H](C(=O)N[C@@H](Cc1ccc(O)cc1)C(N)=O)[C@@H](C)O)C(C)C)[C@@H](C)O
notes: also called compound 82
B4: N^ε1-[2-[2-[2-[[(4S)-4-carboxy-4-(19-carboxynonadecanoylamino)butanoyl]amino]ethoxy]ethoxy]acetyl]-[Arg17,Pro21,Pro27,Arg34]-h-amylin (peptide)
peptide: K([AEEA-γGlu-C20 diacid])CNTATCATQRLANFLRHSSPNFGAIPSSTNVGRNTY-NH2
modifications: disulfide 2-7; N-terminus assumed
SMILES: CC[C@H](C)[C@H](NC(=O)[C@H](C)NC(=O)CNC(=O)[C@H](Cc1ccccc1)NC(=O)[C@H](CC(N)=O)NC(=O)[C@@H]1CCCN1C(=O)[C@H](CO)NC(=O)[C@H](CO)NC(=O)[C@H](Cc1c[nH]cn1)NC(=O)[C@H](CCCNC(=N)N)NC(=O)[C@H](CC(C)C)NC(=O)[C@H](Cc1ccccc1)NC(=O)[C@H](CC(N)=O)NC(=O)[C@H](C)NC(=O)[C@H](CC(C)C)NC(=O)[C@H](CCCNC(=N)N)NC(=O)[C@H](CCC(N)=O)NC(=O)[C@@H](NC(=O)[C@H](C)NC(=O)[C@@H]1CSSC[C@H](NC(=O)[C@@H](N)CCCCNC(=O)COCCOCCNC(=O)CC[C@H](NC(=O)CCCCCCCCCCCCCCCCCCC(=O)O)C(=O)O)C(=O)N[C@@H](CC(N)=O)C(=O)N[C@@H]([C@@H](C)O)C(=O)N[C@@H](C)C(=O)N[C@@H]([C@@H](C)O)C(=O)N1)[C@@H](C)O)C(=O)N1CCC[C@H]1C(=O)N[C@@H](CO)C(=O)N[C@@H](CO)C(=O)N[C@H](C(=O)N[C@@H](CC(N)=O)C(=O)N[C@H](C(=O)NCC(=O)N[C@@H](CCCNC(=N)N)C(=O)N[C@@H](CC(N)=O)C(=O)N[C@H](C(=O)N[C@@H](Cc1ccc(O)cc1)C(N)=O)[C@@H](C)O)C(C)C)[C@@H](C)O
notes: also called compound 78
B5: N^ε1-[2-[2-[2-[[(4S)-4-carboxy-4-(19-carboxynonadecanoylamino)butanoyl]amino]ethoxy]ethoxy]acetyl]-[His14,Arg17,Pro21,Pro27,Arg34]-h-amylin (peptide)
peptide: K([AEEA-γGlu-C20 diacid])CNTATCATQRLAHFLRHSSPNFGAIPSSTNVGRNTY-NH2
modifications: disulfide 2-7; N-terminus assumed
SMILES: CC[C@H](C)[C@H](NC(=O)[C@H](C)NC(=O)CNC(=O)[C@H](Cc1ccccc1)NC(=O)[C@H](CC(N)=O)NC(=O)[C@@H]1CCCN1C(=O)[C@H](CO)NC(=O)[C@H](CO)NC(=O)[C@H](Cc1c[nH]cn1)NC(=O)[C@H](CCCNC(=N)N)NC(=O)[C@H](CC(C)C)NC(=O)[C@H](Cc1ccccc1)NC(=O)[C@H](Cc1c[nH]cn1)NC(=O)[C@H](C)NC(=O)[C@H](CC(C)C)NC(=O)[C@H](CCCNC(=N)N)NC(=O)[C@H](CCC(N)=O)NC(=O)[C@@H](NC(=O)[C@H](C)NC(=O)[C@@H]1CSSC[C@H](NC(=O)[C@@H](N)CCCCNC(=O)COCCOCCNC(=O)CC[C@H](NC(=O)CCCCCCCCCCCCCCCCCCC(=O)O)C(=O)O)C(=O)N[C@@H](CC(N)=O)C(=O)N[C@@H]([C@@H](C)O)C(=O)N[C@@H](C)C(=O)N[C@@H]([C@@H](C)O)C(=O)N1)[C@@H](C)O)C(=O)N1CCC[C@H]1C(=O)N[C@@H](CO)C(=O)N[C@@H](CO)C(=O)N[C@H](C(=O)N[C@@H](CC(N)=O)C(=O)N[C@H](C(=O)NCC(=O)N[C@@H](CCCNC(=N)N)C(=O)N[C@@H](CC(N)=O)C(=O)N[C@H](C(=O)N[C@@H](Cc1ccc(O)cc1)C(N)=O)[C@@H](C)O)C(C)C)[C@@H](C)O
notes: also called compound 84
B6: N^ε1-[2-[2-[2-[[(4S)-4-carboxy-4-(19-carboxynonadecanoylamino)butanoyl]amino]ethoxy]ethoxy]acetyl]-[His14,Arg17,Pro21,Pro27,His34]-h-amylin (peptide)
peptide: K([AEEA-γGlu-C20 diacid])CNTATCATQRLAHFLRHSSPNFGAIPSSTNVGHNTY-NH2
modifications: disulfide 2-7; N-terminus assumed
SMILES: CC[C@H](C)[C@H](NC(=O)[C@H](C)NC(=O)CNC(=O)[C@H](Cc1ccccc1)NC(=O)[C@H](CC(N)=O)NC(=O)[C@@H]1CCCN1C(=O)[C@H](CO)NC(=O)[C@H](CO)NC(=O)[C@H](Cc1c[nH]cn1)NC(=O)[C@H](CCCNC(=N)N)NC(=O)[C@H](CC(C)C)NC(=O)[C@H](Cc1ccccc1)NC(=O)[C@H](Cc1c[nH]cn1)NC(=O)[C@H](C)NC(=O)[C@H](CC(C)C)NC(=O)[C@H](CCCNC(=N)N)NC(=O)[C@H](CCC(N)=O)NC(=O)[C@@H](NC(=O)[C@H](C)NC(=O)[C@@H]1CSSC[C@H](NC(=O)[C@@H](N)CCCCNC(=O)COCCOCCNC(=O)CC[C@H](NC(=O)CCCCCCCCCCCCCCCCCCC(=O)O)C(=O)O)C(=O)N[C@@H](CC(N)=O)C(=O)N[C@@H]([C@@H](C)O)C(=O)N[C@@H](C)C(=O)N[C@@H]([C@@H](C)O)C(=O)N1)[C@@H](C)O)C(=O)N1CCC[C@H]1C(=O)N[C@@H](CO)C(=O)N[C@@H](CO)C(=O)N[C@H](C(=O)N[C@@H](CC(N)=O)C(=O)N[C@H](C(=O)NCC(=O)N[C@@H](Cc1c[nH]cn1)C(=O)N[C@@H](CC(N)=O)C(=O)N[C@H](C(=O)N[C@@H](Cc1ccc(O)cc1)C(N)=O)[C@@H](C)O)C(C)C)[C@@H](C)O
notes: also called compound 80

What follows are binders tested against T1, human calcitonin receptor (assay: cell-based or functional assay).

Row | Binder | Ratio hCT/hAmylin funct. | hCTR funct. EC50 (pM)
1 | B1 | 21 | 3800
2 | B2 | 19.5 | 1630
3 | B3 | – | 12700
4 | B4 | – | 8160
5 | B5 | – | 5490
6 | B6 | 15.4 | 2140

What follows are binders tested against T2, human amylin receptor (amylin 3(a) …) (assay: cell-based or functional assay).

Row | Binder | hAmylin-R funct. EC50 (pM)
7 | B1 | 181
8 | B2 | 84
9 | B3 | 215
10 | B4 | 316
11 | B5 | 169
12 | B6 | 139

From patent US20140087995A1 (published 2014)
